Reference: patent publication US20210324080A1 (JIANGSU HUAIYU PHARMACEUTICAL, published 2021)

T1: CTLA-4-hFc (immunogen A; hFc-labeled CTLA-4 extracellular domain protein) (human, UniProt P16410 36-161)
T1 construct: range 36-161; Made in HEK293 cells, purified on protein A; also called CLTA-4-hFc; CTLA-4 protein; not shown: human IgG Fc fragment (hFc) of the pCpC vector
T1 sequence (looked up): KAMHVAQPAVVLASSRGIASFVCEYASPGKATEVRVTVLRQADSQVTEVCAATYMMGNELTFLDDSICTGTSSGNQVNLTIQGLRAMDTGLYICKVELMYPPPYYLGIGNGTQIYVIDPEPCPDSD

T2: human CTLA-4 (Y201V), full length, on transfected cells (human, UniProt P16410 36-223)
T2 construct: whole, on cells; also called hCTLA-4; HEK293-hCTLA-4 (Y201V)
T2 sequence (looked up): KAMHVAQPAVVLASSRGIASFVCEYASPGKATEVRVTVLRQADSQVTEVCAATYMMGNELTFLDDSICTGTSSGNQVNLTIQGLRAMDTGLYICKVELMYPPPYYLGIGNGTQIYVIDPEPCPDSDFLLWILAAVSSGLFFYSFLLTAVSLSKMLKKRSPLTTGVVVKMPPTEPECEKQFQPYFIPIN


Legend:
[1] = target: T1, CTLA-4-hFc (immunogen A; hFc-labeled …); assay: competition ELISA: CTLA-4-hFc coated, antibody titrated, blocked ligand biotin-labeled B7.2-hFc, HRP-avidin, A450, inhibition (%)
Protocol: (§1) CTLA-4 extracellular domain protein (CTLA-4-hFc) was diluted with PBS to a final concentration of 1.0 μg/mL, and then added to a 96-well ELISA plate as 100 μl per well. The plate was covered with a plastic film and incubated overnight at 4° C. The plate was washed twice with plate washing solution [PBS containing 0.01% (v/v) Tween 20] on the next day, and added with blocking solution [PBS containing 0.01% (v/v) Tween 20 and 1% (w/w) BSA] and blocked at room temperature for 2 hours. […] After 2 hours, the plate was washed 3 times with a plate washing solution [PBS containing 0.01% (v/v) Tween 20]. HRP (horseradish peroxidase) labeled avidin diluent (purchased from Sigma) was added 100 microliters per well, and after the plate was incubated for 2 hours at 37° C., it was washed with plate washing solution [PBS containing 0.01% (v/v) Tween 20] for 3 times. […] TMB substrate was added to each well. After incubated at room temperature for 30 minutes, the plate was added with […] stop solution (1.0N HCl) to each well. An ELISA plate reader (SpectraMax 384plus, Molecular Device) was used to read the A450 nm value.

[2] = target: T3, monkey CTLA-4, full length, on transfected HEK293 cells (monkey); assay: FACS, 293F-cCTLA-4 cells
T3 construct: whole, on cells; also called cCTLA-4; HEK293-cCTLA-4
Description: The pIRES plasmid with the monkey-derived CTLA-4 full-length gene was transfected into the HEK293 cell line to construct a HEK293 stable cell line containing monkey CTLA-4 (herein referred to as HEK293-cCTLA-4 stable cell line), wherein the database accession number of the monkey CTLA-4 nucleotide sequence is XM_005574014.1. The HEK293-hCTLA-4 stable cell line and HEK293-cCTLA-4 stable cell line were expanded in a T-75 cell culture flask to a 90% confluence. The medium was aspirated, and the cells were washed with HBSS buffer (Hanks Balanced Salt Solution, purchased from Invitrogen) twice, then treated with an enzyme-free cell dissociation fluid (Versene solution, purchased from Life technology) and the cells were collected. The cells were washed with HBSS buffer twice. After counted, the cells were diluted with HBSS buffer to 2×10⁶ cells per ml, added with 1% goat serum blocking solution, wherein the percentage was the mass percantage. Cells were incubated on ice for 30 minutes, then washed twice with HBSS buffer by centrifugation. The collected cells were suspended in the FACS buffer (HBSS containing 1% BSA, wherein the percentage was the mass percantage) to 2×10⁶ cells/ml, added as 100 microliters per well to a 96-well FACS reaction plate, added with 100 microliters per well of the purified CTLA-4 antibody sample to be tested, incubated on ice for 2 hours. The plate was washed twice with the FACS buffer by centrifugation, added with 100 microliters of fluorescent (Alexa 488)-labeled secondary antibodies (purchased from Invitrogen) per well, and incubated on ice for 1 hour. The plate was washed 3 times with FACS buffer by centrifugation, added with 100 μl fixative solution [4% (v/v) Paraformaldehyde] per well to suspend the cells. 10 minutes later, it was washed 2 times with FACS buffer by centrifugation. The cells were suspended with 100 microliters of FACS buffer, FACS (FACS Calibur, purchased from BD) was used for detection and the results were analyzed.

[3] = target: T1, CTLA-4-hFc (immunogen A; hFc-labeled …); assay: ELISA, coated CTLA-4-hFc, competitor biotin-B7.2-hFc
Protocol: as §1

[4] = target: T1, CTLA-4-hFc (immunogen A; hFc-labeled …); assay: ELISA, coated CTLA-4-hFc, competitor biotin-B7.1-hFc
Protocol: as §1

[5] = target: T1, CTLA-4-hFc (immunogen A; hFc-labeled …); assay: competition ELISA: CTLA-4-hFc coated, antibody titrated, blocked ligand biotin-labeled B7.1-hFc, HRP-avidin, A450, inhibition (%)
Protocol: as §1

[6] = target: T2, human CTLA-4 (Y201V), full length, on …; assay: FACS, CHOK1-hCTLA-4 cells

Binder | IC50 (read off the curve) [1] [nM] | MFI at 0.000128 nM [2] | MFI at 0.0128 nM [2] | MFI at 0.064 nM [2] | MFI at 0.32 nM [2] | MFI at 1.6 nM [2] | MFI at 8 nM [2] | MFI at 40 nM [2] | MFI at 200 nM [2] | Inhibition rate (%) at 0.00091 nM [3] [%] | Inhibition rate (%) at 0.091 nM [3] [%] | Inhibition rate (%) at 0.274 nM [3] [%] | Inhibition rate (%) at 0.823 nM [3] [%] | Inhibition rate (%) at 2.5 nM [3] [%] | Inhibition rate (%) at 7.4 nM [3] [%] | Inhibition rate (%) at 22.2 nM [3] [%] | Inhibition rate (%) at 66.7 nM [3] [%] | Inhibition rate (%) at 0.00091 nM [4] [%] | Inhibition rate (%) at 0.091 nM [4] [%] | Inhibition rate (%) at 0.274 nM [4] [%] | further results
40C4C6 (chimeric antibody purified from hybridoma supernatant) (antibody, V domains shown, also called mAb09; mAb009) VH: QVQLVESGGGVVQPGRSLRLSCAASGFTFSSYGMHWVRQAPGKGLEWVAVIWYDGRNKYYADSVKGRFTISRDNSKNTLYLQMNSLRAEDTAVYYCARASGSYSYYFDYWGQGTLVTVSS VL: DIQMTQSPSSLSASVGGRVTITCRASQSISSFLNWYQHELGKAPKLLIYGASSLQSGVPSRFSGSGSGTDFTLTISSLQPEDFATYYCQQTYSTPFTFGPGTKVDIK | ~0.5 | 2.4 | 23 | 68.6 | 219 | 421 | 619 | 626 | 643 | 0 | 5.3 | 26.4 | 53.3 | 66.6 | 76.6 | 84.6 | 88.7 | 0 | 12.7 | 40 | Inhibition rate (%) at 0.823 nM [4]: 63.1%; Inhibition rate (%) at 2.5 nM [4]: 75.2%; Inhibition rate (%) at 7.4 nM [4]: 80.7%; Inhibition rate (%) at 22.2 nM [4]: 87.5%; Inhibition rate (%) at 66.7 nM [4]: 89.7%; IC50 (read off the curve) [5]: ~0.3 nM; MFI at 0.07 nM [6]: 43.3; MFI at 0.67 nM [6]: 146; MFI at 6.67 nM [6]: 403; MFI at 66.67 nM [6]: 449
31C12F3 (chimeric antibody purified from hybridoma supernatant) (antibody, V domains shown, also called mAb010) VH: QVQLVESGGGVVQPGRSLILSCAASGFTFSSYGMHWVRQAPGKGLEWVAVVWYDGSNKYYADSVKGRFTISRDNSKNTLYLQMSSLRAEDTAVYYCARGGIVVPGLFEYWGQGSLVTVSS VL: DIQMTQSPSSLSASVGDRVAITCRTSQSISNLLNWYQQKPGKAPELLIYAPSSFQSGVPSRFRGSGSGTDFTLTISSLQPEDFATYYCQQSYSTPFTFGPGTKVDIK | ~0.5 | 2.4 | 34.3 | 97.7 | 261 | 455 | 654 | 712 | 668 | 0 | -8.8 | 17.1 | 60.2 | 83.6 | 89.9 | 92.1 | 92.8 | 0 | 1.7 | 25.7 | Inhibition rate (%) at 0.823 nM [4]: 72.2%; Inhibition rate (%) at 2.5 nM [4]: 87.7%; Inhibition rate (%) at 7.4 nM [4]: 89.6%; Inhibition rate (%) at 22.2 nM [4]: 93.6%; Inhibition rate (%) at 66.7 nM [4]: 94.4%; IC50 (read off the curve) [5]: ~0.4 nM; MFI at 0.07 nM [6]: 27.6; MFI at 0.67 nM [6]: 95; MFI at 6.67 nM [6]: 386; MFI at 66.67 nM [6]: 469
